Laboratory results as given in US20150377889.

Target: recombinant wild type full-length human galectin-3, His-tagged (unphosphorylated)
Sequence (chain, as listed by the source): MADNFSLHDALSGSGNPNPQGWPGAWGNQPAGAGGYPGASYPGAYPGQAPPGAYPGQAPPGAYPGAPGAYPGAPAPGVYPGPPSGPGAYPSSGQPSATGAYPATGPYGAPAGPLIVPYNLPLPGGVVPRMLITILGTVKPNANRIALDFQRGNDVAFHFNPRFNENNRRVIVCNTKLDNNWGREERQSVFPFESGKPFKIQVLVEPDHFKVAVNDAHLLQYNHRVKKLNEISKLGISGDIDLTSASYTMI

B1: active c-Abl kinase (protein)
chain: PVNSLEKHSWYHGPVSRNAAEYLLSSGINGSFLVRESESSPGQRSISLRYEGRVYHYRINTASDGKLYVSSESRFNTLAELVHHHSTVADGLITTLHYPAPKRNKPTVYGVSPNYDKWEMERTDITMKHKLGGGQYGEVYEGVWKKYSLTVAVKTLKEDTMEVEEFLKEAAVMKEIKHPNLVQLLGVCTREPPFYIITEFMTYGNLLDYLRECNRQEVNAVVLLYMATQISSAMEYLEKKNFIHRDLAARNCLVGENHLVKVADFGLSRLMTGDTYTAHAGAKFPIKWTAPESLAYNKFSIKSDVWAFGVLLWEIATYGMSPYPGIDLSQVYELLEKDYRMERPEGCPEKVYELMRACWQWNPSDRPSFAEIHQAFETMFQESSISDEVEKELGKQGVRGAVSTLLQAPELPTKTRTSRRAAEHRDTTDVPEMPHS
  in vitro tyrosine phosphorylation of galectin-3 (c-Abl kinase assay, pTyr blot): phosphorylating galectin-3 in vitro with active c-Abl
